Reference: US20190169286A1 (Chugai, published 2019)
Residue numbers refer to the chain shown, from its start. Names and notes keep the numbering of the source.

Experiments:
[1] = target: T1, soluble human FcγRIa (His-tagged) (human, UniProt P12314 16-292, limits assumed); test: SPR (Biacore T200), antibody captured on rProtein L on a CM4 chip, soluble His-tagged FcγR injected, HBS-EP+, 20 °C
T1 construct: also called hFcγRIa; not shown: His tag
Procedure: (§1) Soluble FcγRIa and FcγRIIIa in both human and cynomolgus monkey were produced in the form of His-tagged molecules by methods known to those of ordinary skill in the art. […] Next, soluble FcγRIa or FcγRIIIa was injected with a running buffer (used as a reference solution), and was made to interact with the antibodies captured onto the sensor chip. HBS-EP+(GE Healthcare) was used as the running buffer, and HBS-EP+ was also used to dilute the soluble FcγRIa or FcγRIIIa. […] All measurements were carried out at 20° C.

[2] = target: T2, soluble cynomolgus monkey FcγRIIIa (His-tagged) (cynomolgus monkey, UniProt Q8SPW2 17-208); test: as above
T2 construct: also called cynoFcγRIIIa; not shown: His tag
T2 sequence (Q8SPW2 17-208 limits assumed): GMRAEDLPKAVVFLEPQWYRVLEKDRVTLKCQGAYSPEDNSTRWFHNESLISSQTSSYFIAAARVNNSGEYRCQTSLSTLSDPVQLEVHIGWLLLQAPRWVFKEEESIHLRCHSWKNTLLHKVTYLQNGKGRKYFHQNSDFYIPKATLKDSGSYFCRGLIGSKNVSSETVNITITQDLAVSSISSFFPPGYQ
Procedure: as §1

[3] = target: T3, soluble human FcγRIIIa (His-tagged) (human, UniProt P08637 17-208); test: as above
T3 construct: also called hFcγRIIIa; not shown: His tag
T3 sequence (P08637 17-208 limits assumed): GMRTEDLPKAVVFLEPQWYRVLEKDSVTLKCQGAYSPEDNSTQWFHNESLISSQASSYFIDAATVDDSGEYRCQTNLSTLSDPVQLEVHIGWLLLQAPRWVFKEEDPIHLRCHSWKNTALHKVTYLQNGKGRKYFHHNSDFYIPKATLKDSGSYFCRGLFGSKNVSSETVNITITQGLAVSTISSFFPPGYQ
Procedure: as §1

human FcRn = target: T4, human FcRn (human, UniProt P55899 24-290; P61769 21-119, limits assumed); test: SPR Biacore T100, Ab captured on Protein L, FcRn analyte, pH 6.0, 25C
T4 construct: also called hFcRn
T4 sequence (P55899 24-290 limits assumed, chain 1 of 2): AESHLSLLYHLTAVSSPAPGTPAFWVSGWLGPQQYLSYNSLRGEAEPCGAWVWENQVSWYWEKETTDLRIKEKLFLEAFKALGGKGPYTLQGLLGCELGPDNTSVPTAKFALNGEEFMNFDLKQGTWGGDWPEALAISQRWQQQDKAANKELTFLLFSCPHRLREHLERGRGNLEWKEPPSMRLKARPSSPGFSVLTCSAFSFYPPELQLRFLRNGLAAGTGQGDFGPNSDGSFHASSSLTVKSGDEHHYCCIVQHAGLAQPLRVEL
T4 sequence (P61769 21-119 limits assumed, chain 2 of 2): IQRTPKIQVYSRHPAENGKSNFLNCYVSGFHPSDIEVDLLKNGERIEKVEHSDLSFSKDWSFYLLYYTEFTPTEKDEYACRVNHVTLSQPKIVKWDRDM
Procedure: Antibodies containing VH3-IgG1m or an above-mentioned variant as the heavy chain and L(WT) (SEQ ID NO:1) as the light chain were produced by the method of Reference Example 2, and the binding activity toward human FcRn was evaluated as follows.
Kinetic analyses of human FcRn and each of the antibodies were carried out using BIACORE T100 (GE Healthcare). […] For the running buffer, 50 mM sodium phosphate, 150 mM NaCl, and 0.05% (w/v) Tween 20 at pH 6.0 was used, and the respective buffer was also used to dilute FcRn. […] All measurements were carried out at 25° C.

human IL-8 [4] = target: T5, human IL-8 (human, UniProt P10145 23-99, limits assumed); test: SPR Biacore T200, Protein A/G capture, pH 5.8, 37C;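 as to Kd: antibodies captured by Protein A/G amine-coupled onto a CM4 sensor chip, with kinetic parameters derived using Biacore T200 Evaluation Software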
T5 construct: also called hIL-8; hIL8
T5 sequence (P10145 23-99 limits assumed): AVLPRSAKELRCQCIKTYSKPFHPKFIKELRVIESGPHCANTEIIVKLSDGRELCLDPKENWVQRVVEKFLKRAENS
Procedure: (§2) An appropriate amount of Protein A/G (PIERCE) was immobilized onto the Sensor chip CM4 (GE Healthcare) by the amine coupling method and the antibodies of interest were captured. […] To regenerate the sensor chip, 25 mM NaOH and 10 mM glycine-HCl (pH 1.5) were used. […] The BIACORE T200 Evaluation Software (GE Healthcare) was used to calculate each parameter.

human IL-8 [5] = target: T5, human IL-8; test: SPR Biacore T200, Protein A/G capture, IL-8 analyte, pH 7.4, 37C
Procedure: (§3) An appropriate amount of Protein A/G (PIERCE) was immobilized onto Sensor chip CM4 (GE Healthcare) by the amine coupling method and the antibodies of interest was captured. […] To regenerate the sensor chip, 10 mM glycine-HCl at pH 1.5 was used. All measurements were carried out at 37° C. […] The BIACORE T200 Evaluation Software (GE Healthcare) was used to calculate each parameter.

human IL-8 [6] = target: T5, human IL-8; test: SPR Biacore T200, Protein A/G capture, IL-8 analyte, pH 5.8, 37C
Procedure: as §3

human IL-8 [7] = target: T5, human IL-8; test: as above; remark: listed apart in the source
Procedure: as §3

human IL-8 [8] = target: T5, human IL-8; test: SPR Biacore T200, Protein A/G capture, IL-8 analyte, pH 7.4, 37C; remark: listed apart in the source
Procedure: as §3

human IL-8 [9] = target: T5, human IL-8; test: SPR Biacore T200, Protein A/G capture, pH 5.8, 37C; remark: listed apart in the source;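 as to Kd: antibodies captured by Protein A/G amine-coupled onto a CM4 sensor chip, with kinetic parameters derived using Biacore T200 Evaluation Software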
Procedure: as §2

human IL-8 [10] = target: T5, human IL-8; test: SPR Biacore T200, Protein A/G capture, pH 7.4, 40C;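 as to Kd: antibodies captured via Protein A/G, which was amine-coupled to a CM4 sensor chip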
Procedure: as §2

human IL-8 [11] = target: T5, human IL-8; test: SPR Biacore T200, Protein A/G capture, pH 7.4, 40C; remark: listed apart in the source;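 as to Kd: antibodies captured via Protein A/G, which was amine-coupled to a CM4 sensor chip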
Procedure: as §2

human IL-8 [12] = target: T5, human IL-8; test: SPR IL-8 binding level per 1000 RU captured Ab, pH 7.4, 40C; 1 week 50C in PBS vs initial
human IL-8 [13] = target: T5, human IL-8; test: SPR Biacore T200, 37C; ratio between pH 7.4 and pH 5.8
Procedure: as §3

T1 sequence (P12314 16-292 limits assumed): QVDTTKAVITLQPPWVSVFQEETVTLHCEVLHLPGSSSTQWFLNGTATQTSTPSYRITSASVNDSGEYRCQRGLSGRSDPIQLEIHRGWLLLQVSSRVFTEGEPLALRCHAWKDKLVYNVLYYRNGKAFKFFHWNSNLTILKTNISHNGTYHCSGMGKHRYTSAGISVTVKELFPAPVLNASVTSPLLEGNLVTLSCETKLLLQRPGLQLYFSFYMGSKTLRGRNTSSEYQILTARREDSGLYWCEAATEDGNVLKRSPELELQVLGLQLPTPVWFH

B1: H1009/L395-F1886s (H1009-F1886s / L395-k0MT) (antibody)
heavy: QVQLVESGGGLVQPGGSLRLSCAASGFTFSDYYLSWVRQAPGKGLEWVGLIRNKDNYHTPEYSASVKGRFTISRDDSKNSLYLTMSDLKTEDTAVYYCARENHRYDVELAYWGQGTLVTVSSASTKGPSVFPLAPSSKSTSGGTAALGCLVKDYFPEPVTVSWNSGALTSGVHTFPAVLQSSGLYSLSSVVTVPSSSLGTQTYICNVNHKPSNTKVDKKVEPKSCDKTHTCPPCPAPELRRGPKVFLFPPKPKDTLMISRTPEVTCVVVDVSHEDPEVKFNWYVDGVEVHNAKTKPREEQYNSTYRVVSVLTVLHQDWLNGKEYKCKVSNKALPAPIEKTISKAKGQPREPQVYTLPPSREEMTKNQVSLTCLVKGFYPSDIAVEWESNGQPENNYKTTPPVLDSDGSFFLYSKLTVDKSRWQQGNVFSCSVLHEALHAHTTRKELSLSP
light: DIQMTQSPSSLSASVGDRVTITCRASEIIYSYLAWYQQKPGKAPKLLIYKAKTHADGVPSRFSGSGSGTDFTFTISSLQPEDIATYYCKHHFGFPRTFGQGTKVEIKRTVAAPSVFIFPPSDEQLKSGTASVVCLLNNFYPREAKVQWKVDNALQSGNSQESVTEQDSKDSTYSLSSTLTLSKADYEKHKVYACEVTHQGLSSPVTKSFNRGEC
binding result [1]: no binding (tested: not given)
binding result [2]: no binding (tested: not given)
binding result [3]: no binding (tested: not given)

B2: H1009/L395-F1974m (H1009-F1974m / L395-k0MT) (antibody)
heavy: B1 heavy with K244S, A332G, A335S, P336S
light: B1 light
notes: also called antibody H1009/L395-F1974m
binding result [1]: no binding (tested: not given)
binding result [2]: no binding (tested: not given)
binding result [3]: no binding (tested: not given)

B3: H1009/L395-F1886m (antibody)
heavy: B1 heavy with R240L, R241G, K244S
light: B1 light
binding result [1]: binds
binding result [2]: binds

B4: VH3-F1168m / L(WT) (antibody)
heavy: QVQLQESGPGLVKPSETLSLTCAVSGHSISHDHAWSWVRQPPGEGLEWIGFISYSGITNYNPSLQGRVTISRDNSKNTLYLQMNSLRAEDTAVYYCARSLARTTAMDYWGEGTLVTVSSASTKGPSVFPLAPSSKSTSGGTAALGCLVKDYFPEPVTVSWNSGALTSGVHTFPAVLQSSGLYSLSSVVTVPSSSLGTQTYICNVNHKPSNTKVDKKVEPKSCDKTHTCPPCPAPELLGGPSVFLFPPKPKDTLMISRTPEVTCVVVDVSHEDPEVKFNWYVDGVEVHNAKTKPREEQYNSTYRVVSVLTVLHQDWLNGKEYKCKVSNKALPAPIEKTISKAKGQPREPQVYTLPPSREEMTKNQVSLTCLVKGFYPSDIAVEWESNGQPENNYKTTPPVLDSDGSFFLYSKLTVDKSRWQQGNVFSCSVMHEALHAHYTRKELSLSP
light: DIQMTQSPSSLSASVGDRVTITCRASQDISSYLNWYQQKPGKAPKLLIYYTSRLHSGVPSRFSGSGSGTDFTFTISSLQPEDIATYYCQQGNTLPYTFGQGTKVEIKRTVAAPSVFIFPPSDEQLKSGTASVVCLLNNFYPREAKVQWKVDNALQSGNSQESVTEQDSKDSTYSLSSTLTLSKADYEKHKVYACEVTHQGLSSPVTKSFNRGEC
notes: Fc: N434A/Q438R/S440E
Kd (human FcRn): 410 nM

B5: VH3-F1927m / L(WT) (antibody)
heavy: B4 heavy with M430L
light: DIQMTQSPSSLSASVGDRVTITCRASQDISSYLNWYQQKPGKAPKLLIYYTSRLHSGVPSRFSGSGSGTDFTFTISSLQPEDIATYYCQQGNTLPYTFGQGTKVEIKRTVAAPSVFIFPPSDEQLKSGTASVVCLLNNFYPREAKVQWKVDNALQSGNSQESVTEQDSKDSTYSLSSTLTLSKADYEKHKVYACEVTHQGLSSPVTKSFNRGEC
notes: Fc: M428L/N434A/Q438R/S440E
Kd (human FcRn): 125 nM

B6: VH3-F1886m / L(WT) (antibody)
heavy: B4 heavy with M430L, Y438T
light: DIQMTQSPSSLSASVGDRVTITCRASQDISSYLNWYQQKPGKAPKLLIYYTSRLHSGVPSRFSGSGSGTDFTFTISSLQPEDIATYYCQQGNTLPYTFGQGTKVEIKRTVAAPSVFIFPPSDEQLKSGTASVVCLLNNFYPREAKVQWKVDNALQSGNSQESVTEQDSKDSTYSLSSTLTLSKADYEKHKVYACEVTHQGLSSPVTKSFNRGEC
notes: Fc: M428L/N434A/Y436T/Q438R/S440E
Kd (human FcRn): 108 nM

B7: VH3-YTE / L(WT) (antibody, human IgG1, kappa)
heavy: B4 heavy with M254Y, S256T, T258E, A436N, R440Q, E442S
light: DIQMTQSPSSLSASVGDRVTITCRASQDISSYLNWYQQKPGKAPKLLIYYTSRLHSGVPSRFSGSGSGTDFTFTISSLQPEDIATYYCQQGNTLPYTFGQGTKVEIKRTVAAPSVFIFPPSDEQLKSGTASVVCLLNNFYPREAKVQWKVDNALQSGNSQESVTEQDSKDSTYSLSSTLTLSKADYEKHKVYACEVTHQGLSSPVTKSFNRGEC
notes: Fc: M252Y/S254T/T256E
Kd (human FcRn): 148 nM

B8: VH3-F1847m / L(WT) (antibody)
heavy: B4 heavy with Y438T
light: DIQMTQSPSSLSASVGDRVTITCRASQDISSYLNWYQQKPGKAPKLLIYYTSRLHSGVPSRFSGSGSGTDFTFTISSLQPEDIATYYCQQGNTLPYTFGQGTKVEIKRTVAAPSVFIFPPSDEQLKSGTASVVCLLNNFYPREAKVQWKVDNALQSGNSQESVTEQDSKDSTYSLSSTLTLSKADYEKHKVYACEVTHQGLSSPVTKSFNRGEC
notes: Fc: N434A/Y436T/Q438R/S440E
Kd (human FcRn): 367 nM

B9: VH3-F1848m / L(WT) (antibody)
heavy: B4 heavy with Y438V
light: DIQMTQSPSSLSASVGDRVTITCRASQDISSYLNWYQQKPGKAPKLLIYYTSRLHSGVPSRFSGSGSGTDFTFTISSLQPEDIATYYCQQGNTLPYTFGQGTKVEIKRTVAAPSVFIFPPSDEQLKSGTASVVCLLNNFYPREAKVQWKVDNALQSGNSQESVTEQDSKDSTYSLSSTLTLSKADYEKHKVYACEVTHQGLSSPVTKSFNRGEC
notes: Fc: N434A/Y436V/Q438R/S440E
Kd (human FcRn): 295 nM

B10: VH3-F1889m / L(WT) (antibody)
heavy: B4 heavy with M430L, Y438V
light: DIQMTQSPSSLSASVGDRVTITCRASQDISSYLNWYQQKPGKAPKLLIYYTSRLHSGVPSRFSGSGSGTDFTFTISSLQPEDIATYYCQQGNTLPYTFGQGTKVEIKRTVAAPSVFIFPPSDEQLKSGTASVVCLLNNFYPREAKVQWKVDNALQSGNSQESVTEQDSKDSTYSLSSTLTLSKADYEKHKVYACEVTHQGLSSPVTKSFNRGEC
notes: Fc: M428L/N434A/Y436V/Q438R/S440E
Kd (human FcRn): 103 nM

B11: H89/L118 (H89-IgG1 / L118-k0MT) (antibody, V domains shown)
VH: QVQLVESGGGLVQPGGSLRLSCAASGFTFSDYYLSWVRQAPGKGLEWVGLIRNKANGYTREYSASVKGRFTISRDDSKNSLYLQMSSLKTEDTAVYYCARENHRYDVELAYWGQGTLVTVSS
VL: DIQMTQSPSSLSASVGDRVTITCRASEIIYSYLAWYQQKPGKAPKLLIYHAKTHADGVPSRFSGSGSGTDFTFTISSLQPEDIATYYCKHHFGFPRTFGQGTKVEIKR
notes: also called H0089/L0118
koff (human IL-8 [4]): 0.0063 s⁻¹
koff (human IL-8 [5]): 2.13e-05 s⁻¹
kon (human IL-8 [5]): 580000 M⁻¹ s⁻¹
koff (human IL-8 [6]): 0.00384 s⁻¹
kon (human IL-8 [6]): 179000 M⁻¹ s⁻¹
koff (human IL-8 [7]): 0.0039 s⁻¹
kon (human IL-8 [7]): 123000 M⁻¹ s⁻¹
koff (human IL-8 [8]): 0.000114 s⁻¹
kon (human IL-8 [8]): 945000 M⁻¹ s⁻¹
koff (human IL-8 [9]): 0.00628 s⁻¹
kon (human IL-8 [9]): 129000 M⁻¹ s⁻¹
koff (human IL-8 [10]): 0.000129 s⁻¹
kon (human IL-8 [10]): 751000 M⁻¹ s⁻¹

B12: H1050/L0442 (antibody, human IgG1, kappa, name in Kabat numbering, V domains shown)
VH: B11 VH with D31E, A55D, G57Y, Y58H, R60P, Q84T, S87D
VL: B11 VL with S31E, H50K
notes: L442 = L395 + S31E
Kd (human IL-8 [11]): 0.099 nM
Kd (human IL-8 [4]): 54 nM
koff (human IL-8 [4]): 0.0076 s⁻¹

B13: H1009/L395 (H1009-IgG1m / L395-k0MT) (antibody)
heavy: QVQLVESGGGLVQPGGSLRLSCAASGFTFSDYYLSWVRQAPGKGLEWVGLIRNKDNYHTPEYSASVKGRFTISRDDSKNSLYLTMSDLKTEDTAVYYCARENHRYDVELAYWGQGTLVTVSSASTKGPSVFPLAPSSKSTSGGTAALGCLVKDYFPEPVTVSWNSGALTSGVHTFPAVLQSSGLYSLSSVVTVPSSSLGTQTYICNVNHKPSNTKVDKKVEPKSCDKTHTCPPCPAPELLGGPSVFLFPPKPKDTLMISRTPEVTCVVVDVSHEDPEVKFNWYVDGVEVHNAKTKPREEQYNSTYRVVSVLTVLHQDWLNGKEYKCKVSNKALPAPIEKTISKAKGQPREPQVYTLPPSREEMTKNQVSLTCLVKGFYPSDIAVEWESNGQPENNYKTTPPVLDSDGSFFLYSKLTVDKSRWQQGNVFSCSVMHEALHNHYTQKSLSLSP
light: B1 light
notes: also called H1009/L0395
koff (human IL-8 [4]): 0.01 s⁻¹
Ratio of IL-8 Binding Amount (Thermal Acceleration/Initial) (human IL-8 [12]): 0.64

B14: Hr9/L16 (antibody, human IgG1, kappa, name in Kabat numbering, V domains shown)
VH: B11 VH with H103Y
VL: B11 VL with H50N, K89Q
notes: WS4L-k0MT with L54H
koff (human IL-8 [5]): 9.57e-05 s⁻¹
kon (human IL-8 [5]): 890000 M⁻¹ s⁻¹
koff (human IL-8 [6]): 0.000197 s⁻¹
kon (human IL-8 [6]): 39100 M⁻¹ s⁻¹
KD Ratio (pH 5.8/pH 7.4) (human IL-8 [13]): 46.8
Koff Ratio (pH 5.8/pH 7.4) (human IL-8 [13]): 2.1
kon Ratio (pH 7.4/pH 5.8) (human IL-8 [13]): 22.8
